Experimental findings from patent US20040265965 are described below.

Numbering of substitutions follows the chain as printed. Numbers in names are those of the source. Where “and” joins values, the source holds several entries; their conditions need not be identical. Equal entries are not always repeated.

In this series the target is MBP-C125Swe (maltose binding protein fused to the C-terminal 125 amino acids of the Swedish variant of APP), P05067.
Sequence of MBP-C125Swe (maltose binding protein fused to the C-terminal 125 amino acids of the Swedish variant of APP), P05067 (P05067 whole entry, looked up, change not shown, the tested form may be a part): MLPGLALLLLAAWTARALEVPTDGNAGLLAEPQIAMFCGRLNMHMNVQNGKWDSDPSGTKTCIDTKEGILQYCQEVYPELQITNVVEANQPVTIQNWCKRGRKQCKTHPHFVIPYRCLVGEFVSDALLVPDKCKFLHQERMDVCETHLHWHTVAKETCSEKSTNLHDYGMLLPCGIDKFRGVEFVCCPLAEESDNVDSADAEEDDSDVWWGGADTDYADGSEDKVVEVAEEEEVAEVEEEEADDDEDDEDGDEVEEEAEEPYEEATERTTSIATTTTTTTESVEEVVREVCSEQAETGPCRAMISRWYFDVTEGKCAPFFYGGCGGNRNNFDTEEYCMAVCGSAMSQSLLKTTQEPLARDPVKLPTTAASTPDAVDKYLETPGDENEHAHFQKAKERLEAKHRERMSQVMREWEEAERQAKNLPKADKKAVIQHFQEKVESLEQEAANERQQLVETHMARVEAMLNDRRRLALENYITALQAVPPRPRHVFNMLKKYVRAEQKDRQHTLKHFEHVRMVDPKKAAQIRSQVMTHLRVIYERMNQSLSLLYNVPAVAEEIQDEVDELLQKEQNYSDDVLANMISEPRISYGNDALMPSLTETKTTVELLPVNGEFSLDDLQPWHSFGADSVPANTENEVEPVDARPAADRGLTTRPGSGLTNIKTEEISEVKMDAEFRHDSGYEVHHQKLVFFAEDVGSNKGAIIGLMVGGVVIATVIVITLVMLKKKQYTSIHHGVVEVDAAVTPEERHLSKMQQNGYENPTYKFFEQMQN

B1: Δ2,3-452H soluble BACE (S174I, N223A, histidine tag), baculovirus/Sf9 (protein)
chain: TQHGIRLPLRSGLGGAPLGLRLPRETDEEPEEPGRRGSFVEMVDNLRGKSGQGYYVEMTVGSPPQTLNILVDTGSSNFAVGAAPHPFLHRYYQRQLSSTYRDLRKGVYVPYTQGKWEGELGTDLVSIPHGPNVTVRANIAAITESDKFFINGINWEGILGLAYAEIARPDDSLEPFFDSLVKQTHVPNLFSLQLCGAGFPLAQSEVLASVGGSMIIGGIDHSLYTGSLWYTPIRREWYYEVIIVRVEINGQDLKMDCKEYNYDKSIVDSGTTNLRLPKKVFEAAVKSIKAASSTEKFPDGFWLGEQLVCWQAGTTPWNIFPVISLYLMGEVTNQSFRITILPQQYLRPVEDVATSQDDCYKFAISQSSTGTVMGAVIMEGFYVVFDRARKRIGFAVSACHVHDEFRTAAVEGPFVTLDMEDCGYNIPQTDE
On to B1, for which the Enzyme activity result is “good activity was obtained for all samples tested”.

B2: Δ2,3-452Flag soluble BACE (S174I, N223A) (protein)
chain: TQHGIRLPLRSGLGGAPLGLRLPRETDEEPEEPGRRGSFVEMVDNLRGKSGQGYYVEMTVGSPPQTLNILVDTGSSNFAVGAAPHPFLHRYYQRQLSSTYRDLRKGVYVPYTQGKWEGELGTDLVSIPHGPNVTVRANIAAITESDKFFINGINWEGILGLAYAEIARPDDSLEPFFDSLVKQTHVPNLFSLQLCGAGFPLAQSEVLASVGGSMIIGGIDHSLYTGSLWYTPIRREWYYEVIIVRVEINGQDLKMDCKEYNYDKSIVDSGTTNLRLPKKVFEAAVKSIKAASSTEKFPDGFWLGEQLVCWQAGTTPWNIFPVISLYLMGEVTNQSFRITILPQQYLRPVEDVATSQDDCYKFAISQSSTGTVMGAVIMEGFYVVFDRARKRIGFAVSACHVHDEFRTAAVEGPFVTLDMEDCGYNIPQTD
For B2, the Activity (pM/h/ng enz) is 15800 pM/h/ng enz and 15700 pM/h/ng enz; the Cleavage Product (pM) was 109 pM and 108 pM; the “Substrate Conversion (%)” value is 5.19% and 5.16%; the specific activity entry is “all three proteins (452 Flag, Δ3-452Flag and Δ2,3-452Flag) had similar specific activities”.

B3: 452Flag soluble BACE (membrane truncated BACE with C-terminal Flag epitope tag, fully glycosylated) (protein)
chain: B2 chain with I153S, A202N
B3: the Activity (pM/h/ng enz) was 14300 pM/h/ng enz and 15200 pM/h/ng enz; the Cleavage Product (pM) is 85 pM and 90 pM; the “Substrate Conversion (%)” value was 4.05% and 4.30%; the specific activity result is “all three proteins (452 Flag, Δ3-452Flag and Δ2,3-452Flag) had similar specific activities”.

B4: Δ3-452Flag soluble BACE (N223A) (protein)
chain: B2 chain with I153S
Turning to B4, the Activity (pM/h/ng enz) was 19100 pM/h/ng enz and 20200 pM/h/ng enz; the Cleavage Product (pM) is 126 pM and 119 pM; the “Substrate Conversion (%)” value is 5.68% and 6.01%; the specific activity result is “all three proteins (452 Flag, Δ3-452Flag and Δ2,3-452Flag) had similar specific activities”.

B5: 452H,NINL soluble BACE (R42L43P44R45 changed to NINL, histidine tag), baculovirus/Sf9 (protein)
chain: NINLETDEEPEEPGRRGSFVEMVDNLRGKSGQGYYVEMTVGSPPQTLNILVDTGSSNFAVGAAPHPFLHRYYQRQLSSTYRDLRKGVYVPYTQGKWEGELGTDLVSIPHGPNVTVRANIAAITESDKFFINGSNWEGILGLAYAEIARPDDSLEPFFDSLVKQTHVPNLFSLQLCGAGFPLNQSEVLASVGGSMIIGGIDHSLYTGSLWYTPIRREWYYEVIIVRVEINGQDLKMDCKEYNYDKSIVDSGTTNLRLPKKVFEAAVKSIKAASSTEKFPDGFWLGEQLVCWQAGTTPWNIFPVISLYLMGEVTNQSFRITILPQQYLRPVEDVATSQDDCYKFAISQSSTGTVMGAVIMEGFYVVFDRARKRIGFAVSACHVHDEFRTAAVEGPFVTLDMEDCGYNIPQTDE
As to B5, the Enzyme activity result was “good activity was obtained for all samples tested”.

B6: Δ2,3-452H,NINL soluble BACE (S174I, N223A, R42L43P44R45 changed to NINL, histidine tag), baculovirus/Sf9 (protein)
chain: B5 chain with S133I, N182A
With B6, the Enzyme activity result was “good activity was obtained for all samples tested”.
